Assay: yeast display, Sf9 membrane polyspecificity reagent, FACS + sequencing; frameworks hold sequencing errors
Method in brief: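 Galactose-induced (36–48 hours) yeast carrying a synthetic nanobody display library were exposed to 10% biotinylated, detergent-solubilized Sf9 membrane reagent at 4 °C for 1 hour. FACS followed streptavidin microbead enrichment, using low and high (top ~1%) gates for expression (anti-HA) and reagent binding (streptavidin). Colony PCR, MiSeq 2 × 250 sequencing and CDR-length filtering followed. Labels for polyreactivity reflect the gate of origin.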

Sequence	polyreactivity (PSR sort gate)
QVQLVESGGGLVQAGGSLRLSCASSGLIIDYYAMGWYRQAPGKERELVAAITSSSGITYYADSVKGRFTISRDNAKNTVYLQMNSLKPEDNAVYYCAAYTTYKLYEYAYWGQGTQVTVSS	low polyreactivity
QVQLVESGGGLVQAGGSLRLSCASSGNIFRYYVMGWYRKAPGKEREFVAAITSSGGSTYYADSVKGRFTISRDNAKNTVYFQINSLKPDDSEVYYCAKDYWDPGWAEYDYWGQCTQVTVSS	low polyreactivity
QVQLVESGGGLVQAGGSLRLSCASSGNIFYLYAKGWYRQARGKERELVAAIRGSGSTYYADSVKGRFTISRDNAKNTVYLQMNSLKPEDTAVYYCNARVRSQYLYSGTALGYYYWGQGTQVTVSS	high polyreactivity
QVQLVESGGGLVQAGGSLRLSCASSGPTFNEYAMAWYRQAPRKERELVARITRGGSTYYADSVKGRFTISRDNAKNTFYFQINSLIPEDTAVYEFAADLSLLYGGYWITDYDYWVQGTQVTVSS	low polyreactivity
QVQLVESGGGLVQAGGSLRLSCASSGRIFAHNAMGWYSQAPGKERELVAAINSGGSTDYADSVKGRFTISRDNAKNTVYLQMNSLKPEDTAVYYCAADDPGSFPDDSWGQGTQGTVSS	low polyreactivity
QVQLVESGGGLVQAGGSLRLSCASSGRIFFKYAMGWYRQARGKERELLATITWRGSSTYYADSVKWRFTISRDNAKNTVYFQMNSLKPEDTAVYYCAAVAAWWYHQGVRYDYWGQGSQVTVSS	high polyreactivity
QVQLVESGGGLVQAGGSLRLSCASSGRIFRWYAMGWYRQAPGKERELVAAISRSGTSTYYADSVKGRFTISRDNAKNTVFLQMNSLKPEDTAVYYCNTDVQVYSYNYWGQGTQVTVSS	low polyreactivity
QVQLVESGGGLVQAGGSLRLSCASSGRIFSGNAMAWYRQAPGKEMEFVASISRSGGRTRYADSVKGRFTISRDNAKNTVYLQMNSLKPEDTAVYYCAADRSRRGHLTHGYWGQGTQVTVSS	high polyreactivity
QVQLVESGGGLVQAGGSLRLSCASSGRIFSQNAMGWYRQAPGKERELVAAISGGSTNYADSVKGRFTISRDNAKNPVYLQMNSLKPEDTAVYYCAADAPFKMDYWGQGTQVTVSS	low polyreactivity
QVQLVESGGGLVQAGGSLRLSCASSGRISASYAMGWYRQAPGKERELVAAITGSGGSTYYADSVKGRFTISRDNAKNTVYLQMNSLKPEDTAVYYCAAEPGLSVFFEFDSWGQGTQVTVSS	low polyreactivity
QVQLVESGGGLVQAGGSLRLSCASSGRTFAYNALGWYREAPGKERELVAAISASGGSTYYADSVKGRFTISRDNAKNTVYLQMNSLKPEDTAVYYCAAYVRSAYYAIHVDYWGQGTQVTVSA	low polyreactivity
QVQLVESGGGLVQAGGSLRLSCASSGRTFNFYAMGWYRQAPGKERELVAAISHGDSTYYADSVKGRFTISRDNAKNTVYLQMNSLKPEDTAVYYCAASQKYYLLKYEYWGQGTQVTVSS	low polyreactivity
QVQLVESGGGLVQAGGSLRLSCASSGRTFPGNAMGWYRQAPGKERELVAAISWSGTRTYYADSVKGRFTISRDNAKNTVYLQMNSLKPEDTAVYYCNVVVKGAWDYYPYAYWGQGTQVTVSA	high polyreactivity
QVQLVESGGGLVQAGGSLRLSCASSGRTFQVNAMGWYRQAPGKERELVAAISASDGSTYADSVKGRFTISRDNAKNTVYLQMNSLKPEDTAVYYCNKAAYGGHRTSEQVGWVYLYDYWGQGTQVTVSS	low polyreactivity
QVQLVESGGGLVQAGGSLRLSCASSGRTFRSYAMGWYRQAPGKERELVAAITYSGGNTYYADSVKGRFTISRDNAKNTVYLQMNSLKPEDTAVYYCAYLKTPRGYDYWGQGTQVTVSS	high polyreactivity
QVQLVESGGGLVQAGGSLRLSCASSGRTFYINAMVWYRQAPGKERELVAAISIRGGRTYYADSVKGRFTISRDNAKNTVYLQMISLKPEDTAVYYCAADYGSLRQRTLYEYWGQGTQVTVSS	low polyreactivity
QVQLVESGGGLVQAGGSLRLSCASSGRTISHNAMGWYRQAPGKERELVAAISRSGGRTYYADSVKGRFTISRYNAKNTVYLQMNSLKPEDTAVYYCAAEYFDGSTYSYYYWGQGTQVTVSS	high polyreactivity
QVQLVESGGGLVQAGGSLRLSCASSGSIFGSNAMGWYRQAPVKERELVAAITWSDGSTYYADSVKGRFTISRDNAKNTVYLQMNSLKPEDTAVYYCAVVWRGGYRWPYEYWGQGTQVTVSS	low polyreactivity
QVQLVESGGGLVQAGGSLRLSCASSGSIFKAYAMGLSRQAPGKERELVAAIRGSGGRTYYADSVKGRFTISRDYAKNTVYLQMNSLKPEDTAVYYCNTVRSTPNGLDYDYWGQGTQVTVSS	low polyreactivity
QVQLVESGGGLVQAGGSLRLSCASSGSIFNYNSMGGYRQAPGKERELVAGITTSGGSTYYADSVKGRFTISRDNAKNTVYLQMNSLKPEDTAVYYCAGYDYISSTYFLDDFWGQGSQVTVSS	low polyreactivity

Sequence	polyreactivity (PSR sort gate)
QVQLVESGGGLVQAGGSLRLSCASSGSIFPEYDMVWYRQAPGKERELVASISSGGSSTYYADSVKGRFTISRDNAMNTVYLQMNSLKPEATAVYYCARRRSYKRGFDYWGQGTQVTVSS	low polyreactivity
QVQLVESGGGLVQAGGSLRLSCASSGSIFQYYVMGWYRPAPGKERELVAAMRRSGTTYYADSVKGRFTISRDNAKHTLDLQMNSLKPEDTAVYYCNKVRGQEPSNYDYWGQGTQVTVSS	low polyreactivity
QVQLVESGGGLVQAGGSLRLSCASSGSIFRYNAMGWYRQAPGKEREFVAAISYSGGRTYYADSLKGRFTISRDNAKNNVYLQMNIQKPEDTAVYYCAARLKRPFSGYDNWGQGTQVSVSS	high polyreactivity
QVQLVESGGGLVQAGGSLRLSCASSGSIFYDNAMGWYRQAPGKDRELVAAITVTGGSTYYADSVKGRFTISRDNAKNTVYLQMNSLKPEDTAVFYCAADPDYFDYWGQGTQVTVSS	low polyreactivity
QVQLVESGGGLVQAGGSLRLSCASSGSIFYVYAMGWYRQAPGKERELVATIDWSGGSTYYADSVKGRFTISRDNAKNTVYLQMNSLKPEDTAVYYCAAYGLYGYRRRYRVSFTPYDYWGQGTQVNVSS	low polyreactivity
QVQLVESGGGLVQAGGSLRLSCASSGSISAVNTMGWYRQAPGKERELVATISYSTASTYYADSVKGRFTMSRDNAKKTVYLQMNSLKPEDTAVYYCNKDGRWYAYNSEYDHWGQGTQVTVSS	low polyreactivity
QVQLVESGGGLVQAGGSLRLSCASSGSTFKYYAMGWYRQAPGKERELVAAISSGGSTYYADSVKGRFTISRDNAKNTVYLLMNSLKPEDTAVYDCAARGYYGNFSGSGYWGQGTQVTVSS	high polyreactivity
QVQLVESGGGLVQAGGSLRLSCASSGTFHKYAMGWYRQAPGKERELVASISRSGGSTSYADSVKGRFTISRDNAKNNVYLQMNSLKPEDTAVYYCNTPWGAYKYDYWGQGTEVTVSS	high polyreactivity
QVQLVESGGGLVQAGGSLRLSCASSGYIFSLSGMGWYRQAPGKERELVAAITGSGGGTYADSVKGRFTISRDNAKNTVYLQMISLKPEDTAVYYCAAGGYRRRFWPIYDYWGQGTQVSVSS	low polyreactivity
QVQLVESGGGLVQAGGSLRLSCASSGYTFALYAKGWYRQAPGKERELVAAITDSDGSTYADSVKGRFTITRDNAKNTVYLQMNSVKPEDTAVYYCAAESEQWYSYVLSYDWEYDYWGQGTQVTVSS	low polyreactivity
QVQLVESGGGLVQAGGSLRLSCASSRFNFRSYAMGWYRHPPGKERELVAAISRSGGSTYYADSVKGRFTISRDNAKNTVYLQMNSLKPEDTAVYYCAAEYRIPYFFTYGYWGQGTQVTVSS	high polyreactivity
QVQLVESGGGLVQAGGSLRLSCASYGSIFAYYTMGWYRQAPGKARELVATISSRGGSKNYADSVKGRFTISRDNAKNPVYLQMNSLRPEDTAVYYCYAYHYQSGITVSEYDYWGQGTQVTVSS	high polyreactivity
QVQLVESGGGLVQAGGSLRLSCATSGFTFGWNYMGWYRQAPGKERELVAAITWSGGSTYYADSVKGRFTISRDNAKNTVYLQMNSLKPEDTAVYYCAAVVSDYVWRYEYWGQGSQVTVSS	low polyreactivity
QVQLVESGGGLVQAGGSLRLSCATSGRTFSQYAMGWYRQAPGKERELVAVISGSGGSTYYADSVKGRFTISRDNAKNTVYLQINSLKPEDTAVYYCAKRATSWHQYDYWGQGTQVTVSS	low polyreactivity
QVQLVESGGGLVQAGGSLRLSCATTGSTFQVYTMGWNRQAPGKEREFVASISWSGSSTYYADSVKGRFTISRDNAKNTVYLQMNSLKPEDTAVYYCAARARIKYLADPGYYWGQGTQVTVSS	high polyreactivity
QVQLVESGGGLVQAGGSLRLSCAVSGRIFRRNVMGWYRQAPGKDRELVAGISDSGDSTYYADSVKVRFTISRDNAKNTVYLQMNSLKPEDTAVYYCNARYSTTYYGTIYRGMDYWGQGTQVNVSS	high polyreactivity
QVQLVESGGGLVQAGGSLRLSCDAAGLIFRLNAMGWYRPAPGKERELVAAISFSGGGTYYADSVKGRFTISRDNAKNTVYLQMNSLKPEDTAVYFCAADEYAVYYYYNYEYWGQGTQVTVSS	high polyreactivity
QVQLVESGGGLVQAGGSLRLSCDASGFIFKGNAMGWYRHAPRKERELVAAITNRGGGTYYADSVKGRFTISRDNAKNTVYLQMNSLKPEDTAVYYCAKAYTRPFHPYDYWGQGTQVTVSS	high polyreactivity
QVQLVESGGGLVQAGGSLRLSCDASGFIFRYYDMGWYRQAPGKERELVAAISWRGGRTYYADSVKGRFTISRDNAKNTVYLQMNSLKPEVTAVYYCAAGFSLWTYPKPYGEDSWGQGTQVTVSS	high polyreactivity
QVQLVESGGGLVQAGGSLRLSCDASGFIFYYYDMGWYRQAPGKERELVASIDNGGDTNYADSVKGRFTISLDNAKNTVYLQMNSLKPEDTAVYYCAAPYSPLWYPGGDYWRQGTQVTVSS	low polyreactivity

From the nanobody polyreactivity screen of Harvey et al. (2022)
